Assay results published in patent US20260070975A1 (SANTA ANA BIO, published 2026).

Columns and labels:
Experiment in all cases: flow cytometry on HEK293 cells expressing the target
[1] = target: T1, siglec 3 expressed on HEK293 cells (UniProt P20138 18-364, limits assumed)
T1 construct: whole, on cells; also called Siglec-6 family member
Method: (§1) Cultured HEK293 cells expressing human siglec-6, cynomolgus siglec-6, or siglec 6 family members were resuspended in FACS Blocking Buffer (PBS+10% normal human serum) for 30 minutes. Following washing, cells were incubated with siglec-6 antibodies in FACS Buffer (PBS+0.5% bovine serum albumin+0.09% sodium azide) and incubated at 4° C. for 30 minutes, washed and incubated with PE-labeled anti-human secondary antibody. Cells were incubated at 4° C. for 30 minutes in the dark. Following washing, cytofluorimetric analysis was conducted using a BD FACS Symphony A3 (BD Biosciences). Cells were sorted by scatter properties and separated for single cell analysis using side scatter width vs side scatter area. Antibody binding to cells was quantitated by measuring fluorescent emissions of excitation wavelength of 561 nm using a 586/15 nm filter. Data analysis was performed using FlowJo Software.

[2] = target: T2, siglec 12 expressed on HEK293 cells (UniProt Q96PQ1 19-595, limits assumed)
T2 construct: whole, on cells; also called Siglec-6 family member
Method: as §1

[3] = target: T3, siglec 9 expressed on HEK293 cells (UniProt Q9Y336 18-463, limits assumed)
T3 construct: whole, on cells; also called Siglec-6 family member
Method: as §1

[4] = target: T4, siglec 10 expressed on HEK293 cells (UniProt Q96LC7 17-697, limits assumed)
T4 construct: whole, on cells; also called Siglec-6 family member
T4 sequence (looked up): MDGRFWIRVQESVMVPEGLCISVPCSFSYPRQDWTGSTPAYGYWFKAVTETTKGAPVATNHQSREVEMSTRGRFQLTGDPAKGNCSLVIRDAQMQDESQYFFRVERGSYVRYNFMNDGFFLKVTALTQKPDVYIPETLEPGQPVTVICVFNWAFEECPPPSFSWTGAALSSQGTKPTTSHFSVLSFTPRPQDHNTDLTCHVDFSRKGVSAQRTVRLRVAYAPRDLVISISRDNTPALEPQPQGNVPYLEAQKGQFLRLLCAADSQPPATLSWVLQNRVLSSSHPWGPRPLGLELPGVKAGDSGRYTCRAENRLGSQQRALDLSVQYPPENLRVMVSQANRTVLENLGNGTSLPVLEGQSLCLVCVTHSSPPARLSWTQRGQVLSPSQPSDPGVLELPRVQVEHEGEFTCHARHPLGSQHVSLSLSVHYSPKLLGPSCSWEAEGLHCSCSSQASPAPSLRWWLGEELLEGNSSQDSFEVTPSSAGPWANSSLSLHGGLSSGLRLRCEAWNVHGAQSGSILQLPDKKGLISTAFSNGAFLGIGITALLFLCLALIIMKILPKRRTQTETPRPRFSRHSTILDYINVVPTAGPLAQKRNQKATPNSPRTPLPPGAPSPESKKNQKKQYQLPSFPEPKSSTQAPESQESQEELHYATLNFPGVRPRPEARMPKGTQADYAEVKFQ
Method: as §1

[5] = target: T5, siglec 14 expressed on HEK293 cells (UniProt Q08ET2 17-396, limits assumed)
T5 construct: whole, on cells; also called Siglec-6 family member
T5 sequence (looked up): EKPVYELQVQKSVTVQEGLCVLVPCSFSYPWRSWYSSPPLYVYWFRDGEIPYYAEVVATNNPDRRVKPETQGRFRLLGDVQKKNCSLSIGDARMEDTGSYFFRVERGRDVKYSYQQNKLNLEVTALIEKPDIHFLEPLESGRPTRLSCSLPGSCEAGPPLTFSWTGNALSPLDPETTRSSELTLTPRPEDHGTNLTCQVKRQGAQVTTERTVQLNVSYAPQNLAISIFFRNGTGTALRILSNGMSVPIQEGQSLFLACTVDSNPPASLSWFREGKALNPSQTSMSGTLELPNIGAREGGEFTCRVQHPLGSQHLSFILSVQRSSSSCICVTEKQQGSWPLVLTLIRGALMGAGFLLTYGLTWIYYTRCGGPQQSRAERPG
Method: as §1

[6] = target: T6, siglec 15 expressed on HEK293 cells (UniProt Q6ZMC9 20-328, limits assumed)
T6 construct: whole, on cells; also called Siglec-6 family member
T6 sequence (looked up): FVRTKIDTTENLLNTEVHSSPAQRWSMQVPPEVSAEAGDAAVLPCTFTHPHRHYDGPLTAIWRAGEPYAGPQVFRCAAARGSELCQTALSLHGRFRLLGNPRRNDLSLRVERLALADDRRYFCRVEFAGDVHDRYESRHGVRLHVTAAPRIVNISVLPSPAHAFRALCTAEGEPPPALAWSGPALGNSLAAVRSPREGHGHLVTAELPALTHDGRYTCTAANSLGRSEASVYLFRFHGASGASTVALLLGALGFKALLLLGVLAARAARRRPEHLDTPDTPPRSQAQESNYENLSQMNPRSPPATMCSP
Method: as §1

[7] = target: T7, siglec 11 expressed on HEK293 cells (UniProt Q96RL6 28-698, limits assumed)
T7 construct: whole, on cells; also called Siglec-6 family member
T7 sequence (looked up): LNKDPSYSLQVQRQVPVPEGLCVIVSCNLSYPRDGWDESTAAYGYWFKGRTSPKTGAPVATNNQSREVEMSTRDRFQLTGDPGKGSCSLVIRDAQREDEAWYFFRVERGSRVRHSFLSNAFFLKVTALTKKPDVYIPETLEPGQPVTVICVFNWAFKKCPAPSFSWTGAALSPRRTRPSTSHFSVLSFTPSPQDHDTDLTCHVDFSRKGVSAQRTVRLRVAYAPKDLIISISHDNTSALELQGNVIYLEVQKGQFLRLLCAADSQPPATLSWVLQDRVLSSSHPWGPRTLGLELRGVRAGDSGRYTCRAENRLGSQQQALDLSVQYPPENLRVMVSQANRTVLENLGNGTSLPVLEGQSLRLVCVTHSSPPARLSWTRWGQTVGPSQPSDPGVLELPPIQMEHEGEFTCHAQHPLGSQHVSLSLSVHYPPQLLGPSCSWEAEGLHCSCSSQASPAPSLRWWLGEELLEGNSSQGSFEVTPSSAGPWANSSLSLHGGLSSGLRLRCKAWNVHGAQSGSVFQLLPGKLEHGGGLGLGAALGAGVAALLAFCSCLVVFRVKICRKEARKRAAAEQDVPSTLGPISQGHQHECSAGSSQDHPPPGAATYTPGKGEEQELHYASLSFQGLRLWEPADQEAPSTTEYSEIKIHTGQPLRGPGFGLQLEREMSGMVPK
Method: as §1

[8] = target: T8, siglec 8 expressed on HEK293 cells (UniProt Q9NYZ4 17-499, limits assumed)
T8 construct: whole, on cells; also called Siglec-6 family member
Method: as §1

Measured: binding result

T8 sequence (Q9NYZ4 17-499 limits assumed): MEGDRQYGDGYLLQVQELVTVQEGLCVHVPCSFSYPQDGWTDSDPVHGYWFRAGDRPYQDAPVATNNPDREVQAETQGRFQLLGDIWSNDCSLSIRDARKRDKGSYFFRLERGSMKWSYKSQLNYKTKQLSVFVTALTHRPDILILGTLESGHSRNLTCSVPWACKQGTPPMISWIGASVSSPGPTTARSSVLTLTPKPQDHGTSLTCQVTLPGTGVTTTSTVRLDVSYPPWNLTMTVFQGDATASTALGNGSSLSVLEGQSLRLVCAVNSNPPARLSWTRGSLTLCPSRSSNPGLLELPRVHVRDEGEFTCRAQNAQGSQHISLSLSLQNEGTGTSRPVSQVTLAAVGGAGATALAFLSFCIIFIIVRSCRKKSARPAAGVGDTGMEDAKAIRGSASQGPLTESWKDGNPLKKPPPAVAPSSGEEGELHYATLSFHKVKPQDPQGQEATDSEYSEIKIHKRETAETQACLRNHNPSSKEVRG
T3 sequence (Q9Y336 18-463 limits assumed): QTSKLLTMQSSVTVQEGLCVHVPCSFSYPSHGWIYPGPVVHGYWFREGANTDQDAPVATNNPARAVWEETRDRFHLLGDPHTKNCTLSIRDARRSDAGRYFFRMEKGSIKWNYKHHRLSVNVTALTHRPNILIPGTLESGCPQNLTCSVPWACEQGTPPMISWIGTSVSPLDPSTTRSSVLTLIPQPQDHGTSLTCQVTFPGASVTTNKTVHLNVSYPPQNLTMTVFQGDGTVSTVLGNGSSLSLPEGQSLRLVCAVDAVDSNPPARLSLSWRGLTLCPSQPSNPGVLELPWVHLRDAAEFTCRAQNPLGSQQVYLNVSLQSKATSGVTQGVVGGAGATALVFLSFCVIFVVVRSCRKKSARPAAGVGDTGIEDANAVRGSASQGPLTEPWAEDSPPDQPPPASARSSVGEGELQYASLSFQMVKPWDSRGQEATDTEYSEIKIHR
T1 sequence (P20138 18-364 limits assumed): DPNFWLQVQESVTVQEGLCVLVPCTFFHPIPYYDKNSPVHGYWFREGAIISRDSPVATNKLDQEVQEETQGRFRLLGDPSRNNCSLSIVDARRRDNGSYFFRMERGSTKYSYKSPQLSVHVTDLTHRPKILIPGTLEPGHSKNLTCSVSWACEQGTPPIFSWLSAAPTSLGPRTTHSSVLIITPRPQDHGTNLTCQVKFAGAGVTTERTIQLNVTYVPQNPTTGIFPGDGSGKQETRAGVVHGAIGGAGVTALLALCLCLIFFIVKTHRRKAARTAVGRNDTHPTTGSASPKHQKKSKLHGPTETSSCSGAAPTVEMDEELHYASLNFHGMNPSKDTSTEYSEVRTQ
T2 sequence (Q96PQ1 19-595 limits assumed): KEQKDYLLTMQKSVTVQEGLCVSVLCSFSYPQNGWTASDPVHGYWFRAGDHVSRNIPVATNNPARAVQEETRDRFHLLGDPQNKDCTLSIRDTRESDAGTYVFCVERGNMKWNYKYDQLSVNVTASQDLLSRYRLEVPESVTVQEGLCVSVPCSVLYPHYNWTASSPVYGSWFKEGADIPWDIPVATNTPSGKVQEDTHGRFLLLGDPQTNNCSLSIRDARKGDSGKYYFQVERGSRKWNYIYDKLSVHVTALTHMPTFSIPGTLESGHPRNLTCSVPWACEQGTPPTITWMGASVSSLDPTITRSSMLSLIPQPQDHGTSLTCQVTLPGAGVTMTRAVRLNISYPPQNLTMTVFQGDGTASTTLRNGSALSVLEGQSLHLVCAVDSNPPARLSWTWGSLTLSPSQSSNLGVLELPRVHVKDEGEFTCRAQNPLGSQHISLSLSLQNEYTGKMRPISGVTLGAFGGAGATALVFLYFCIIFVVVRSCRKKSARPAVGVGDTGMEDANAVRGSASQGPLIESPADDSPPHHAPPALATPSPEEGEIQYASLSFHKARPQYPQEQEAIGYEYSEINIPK

B1: hRND-2 (antibody, human IgG1, kappa, V domains shown)
VH: QVQLVQSGAEVKKPGASVKVSCKASGYAFTSYWMHWVRQAPGQRLEWMGEIYPTNGGTTYAQKFQGRVTMTVDKSTSTAYMELSRLRSDDTAVYYCTIEDFYAMDYWGQGTTVTVSS
VL: DIVMTQTPLSLSVTPGQPASISCKSSQSLLDSDGKTSLNWLLQKPGQSPQRLIYLVSKLDSGVPDRFSGSGSGTDFTLKISRVEAEDVGVYYCWQGTHFPYTFGQGTKLEIKR
notes: also called humanized RND-2; hRND-H2 / hRND-L3; copies: 2 + 2
no binding: [1] | [2] | [3] | [4] | [5] | [6] | [7] | [8]

B2: hRND-5 (antibody, human IgG1, kappa, V domains shown)
VH: QVQLVQSGAEVKKPGASVKLSCKASGYAFTSYWMHWVRQAPGQRLEWIGEIYPTNGGTTYNEKFKRRATLTVDKSTSTAYMELSRLRSDDTAVYYCTIEDFYAMDYWGQGTTVTVSS
VL: DIVMTQTPLSLSVTPGQPASISCKSSQSLLDSDGKTSLNWLLQKPGQSPQRLIYLVSKLDSGVPDRFSGSGSGTDFTLKISRVEAEDVGVYYCWQGTHFPYTFGQGTKLEIKR
notes: also called humanized RND-5; hRND-H3b / hRND-L3; copies: 2 + 2
no binding: [1] | [2] | [3] | [4] | [5] | [6] | [7] | [8]

B3: hRND-4 (antibody, human IgG1, kappa, V domains shown)
VH: QVQLVQSGAEVKKPGASVKVSCKASGYAFTSYWMHWVRQAPGQRLEWMGEIYPTNGGTTYNEKFKRRVTMTVDKSTSTAYMELSRLRSDDTAVYYCTIEDFYAMDYWGQGTTVTVSS
VL: DIVMTQTPLSLSVTPGQPASISCKSSQSLLDSDGKTSLNWLLQKPGQSPQRLIYLVSKLDSGVPDRFSGSGSGTDFTLKISRVEAEDVGVYYCWQGTHFPYTFGQGTKLEIKR
notes: also called humanized RND-4; hRND-H2b / hRND-L3; copies: 2 + 2
no binding: [1] | [2] | [3] | [4] | [5] | [6] | [7] | [8]

B4: hRND-3 (antibody, human IgG1, kappa, V domains shown)
VH: QVQLVQSGAEVKKPGASVKLSCKASGYAFTSYWMHWVRQAPGQRLEWIGEIYPTNGGTTYAQKFQGRATLTVDKSTSTAYMELSRLRSDDTAVYYCTIEDFYAMDYWGQGTTVTVSS
VL: DIVMTQTPLSLSVTPGQPASISCKSSQSLLDSDGKTSLNWLLQKPGQSPQRLIYLVSKLDSGVPDRFSGSGSGTDFTLKISRVEAEDVGVYYCWQGTHFPYTFGQGTKLEIKR
notes: also called humanized RND-3; hRND-H3 / hRND-L3; copies: 2 + 2
no binding: [1] | [2] | [3] | [4] | [5] | [6] | [7] | [8]
